This is an account of results in PMC8684725 (Molecular Biology of the Cell, 2021).

What is called stoichiometry N is a count of units in the complex or per binding partner.

The data set “crystal structure” concerns the molecule itself. Put plainly: crystal structure.
The data set “static light scattering” deals with the molecule itself. Put plainly: static light scattering.

B1: WNK1SA (WNK1/S382A), WNK1 (194-483) S382A, unphosphorylated kinase domain (domain or fragment)
chain: not shown
Regarding B1, the binding result in the data set “crystal structure” is on record as “binds”.

B2: unphosphorylated kinase domain of WNK3, WNK3 (118-409) (domain or fragment)
chain: not shown
In the case of B2, the “stoichiometry N” value in “static light scattering” stood at 2.
